# Measurements taken from patent US20160185832A1 (University of Pennsylvania, published 2016).
# B1: GFP fusion of CEP290 aa 1695-1966 (region M) (other)
# chain: DQSQKESQCLKSELQAQKEANSRAPTTTMRNLVERLKSQLALKEKQQKALSRALLELRAEMTAAAEERIISATSQKEAHLNVQQIVDRHTRELKTQVEDLNENLLKLKEALKTSKNRENSLTDNLNDLNNELQKKQKAYNKILREKEEIDQENDELKRQIKRLTSGLQGKPLTDNKQSLIEELQRKVKKLENQLEGKVEEVDLKPMKEKNAKEELIRWEEGKKWQAKIEGIRNKLKEKEGEVFTLTKQLNTLKDLFAKADKEKLTLQRKLKT
# notes: Also a construct without both termini; also called CEP290 region M alone; truncation M (GFP fusion); not shown: N-terminal GFP tag from pcDNA-DEST53 (Gateway)
# B2: GFP fusion of CEP290 aa 580-2479 (other)
# chain: TENISQGDRISERKLDLLSLKNMSEAQSKNEFLSRELIEKERDLERSRTVIAKFQNKLKELVEENKQLEEGMKEILQAIKEMQKDPDVKGGETSLIIPSLERLVNAIESKNAEGIFDASLHLKAQVDQLTGRNEELRQELRESRKEAINYSQQLAKANLKIDHLEKETSLLRQSEGSNVVFKGIDLPDGIAPSSASIINSQNEYLIHLLQELENKEKKLKNLEDSLEDYNRKFAVIRHQQSLLYKEYLSEKETWKTESKTIKEEKRKLEDQVQQDAIKVKEYNNLLNALQMDSDEMKKILAENSRKITVLQVNEKSLIRQYTTLVELERQLRKENEKQKNELLSMEAEVCEKIGCLQRFKEMAIFKIAALQKVVDNSVSLSELELANKQYNELTAKYRDILQKDNMLVQRTSNLEHLECENISLKEQVESINKELEITKEKLHTIEQAWEQETKLGNESSMDKAKKSITNSDIVSISKKITMLEMKELNERQRAEHCQKMYEHLRTSLKQMEERNFELETKFAELTKINLDAQKVEQMLRDELADSVSKAVSDADRQRILELEKNEMELKVEVSKLREISDIARRQVEILNAQQQSRDKEVESLRMQLLDYQAQSDEKSLIAKLHQHNVSLQLSEATALGKLESITSKLQKMEAYNLRLEQKLDEKEQALYYARLEGRNRAKHLRQTIQSLRRQFSGALPLAQQEKFSKTMIQLQNDKLKIMQEMKNSQQEHRNMENKTLEMELKLKGLEELISTLKDTKGAQKVINWHMKIEELRLQELKLNRELVKDKEEIKYLNNIISEYERTISSLEEEIVQQNKFHEERQMAWDQREVDLERQLDIFDRQQNEILNAAQKFEEATGSIPDPSLPLPNQLEIALRKIKENIRIILETRATCKSLEEKLKEKESALRLAEQNILSRDKVINELRLRLPATAEREKLIAELGRKEMEPKSHHTLKIAHQTIANMQARLNQKEEVLKKYQRLLEKAREEQREIVKKHEEDLHILHHRLELQADSSLNKFKQTAWDLMKQSPTPVPTNKHFIRLAEMEQTVAEQDDSLSSLLVKLKKVSQDLERQREITELKVKEFENIKLQLQENHEDEVKKVKAEVEDLKYLLDQSQKESQCLKSELQAQKEANSRAPTTTMRNLVERLKSQLALKEKQQKALSRALLELRAEMTAAAEERIISATSQKEAHLNVQQIVDRHTRELKTQVEDLNENLLKLKEALKTSKNRENSLTDNLNDLNNELQKKQKAYNKILREKEEIDQENDELKRQIKRLTSGLQGKPLTDNKQSLIEELQRKVKKLENQLEGKVEEVDLKPMKEKNAKEELIRWEEGKKWQAKIEGIRNKLKEKEGEVFTLTKQLNTLKDLFAKADKEKLTLQRKLKTTGMTVDQVLGIRALESEKELEELKKRNLDLENDILYMRAHQALPRDSVVEDLHLQNRYLQEKLHALEKQFSKDTYSKPSISGIESDDHCQREQELQKENLKLSSENIELKFQLEQANKDLPRLKNQVRDLKEMCEFLKKEKAEVQRKLGHVRGSGRSGKTIPELEKTIGLMKKVVEKVQRENEQLKKASGILTSEKMANIEQENEKLKAELEKLKAHLGHQLSMHYESKTKGTEKIIAENERLRKELKKETDAAEKLRIAKNNLEILNEKMTVQLEETGKRLQFAESRGPQLEGADSKSWKSIVVTRMYETKLKELETDIAKKNQSITDLKQLVKEATEREQKVNKYNEDLEQQIKILKHVPEGAETEQGLKRELQVLRLANHQLDKEKAELIHQIEANKDQSGAESTIPDADQLKEKIKDLETQLKMSDLEKQHLKEEIKKLKKELENFDPSFFEEIEDLKYNYKEEVKKNILLEEKVKKLSEQLGVELTSPVAASEEFEDEEESPVNFPIY
# notes: The text says only 'lacking the N-terminus'; also called truncation lacking the N-terminus; C-terminal fragment of CEP290 (aa 580 to 2479); not shown: N-terminal GFP tag from pcDNA-DEST53 (Gateway)
# B3: GFP fusion of CEP290 aa 580-1966 (other)
# chain: TENISQGDRISERKLDLLSLKNMSEAQSKNEFLSRELIEKERDLERSRTVIAKFQNKLKELVEENKQLEEGMKEILQAIKEMQKDPDVKGGETSLIIPSLERLVNAIESKNAEGIFDASLHLKAQVDQLTGRNEELRQELRESRKEAINYSQQLAKANLKIDHLEKETSLLRQSEGSNVVFKGIDLPDGIAPSSASIINSQNEYLIHLLQELENKEKKLKNLEDSLEDYNRKFAVIRHQQSLLYKEYLSEKETWKTESKTIKEEKRKLEDQVQQDAIKVKEYNNLLNALQMDSDEMKKILAENSRKITVLQVNEKSLIRQYTTLVELERQLRKENEKQKNELLSMEAEVCEKIGCLQRFKEMAIFKIAALQKVVDNSVSLSELELANKQYNELTAKYRDILQKDNMLVQRTSNLEHLECENISLKEQVESINKELEITKEKLHTIEQAWEQETKLGNESSMDKAKKSITNSDIVSISKKITMLEMKELNERQRAEHCQKMYEHLRTSLKQMEERNFELETKFAELTKINLDAQKVEQMLRDELADSVSKAVSDADRQRILELEKNEMELKVEVSKLREISDIARRQVEILNAQQQSRDKEVESLRMQLLDYQAQSDEKSLIAKLHQHNVSLQLSEATALGKLESITSKLQKMEAYNLRLEQKLDEKEQALYYARLEGRNRAKHLRQTIQSLRRQFSGALPLAQQEKFSKTMIQLQNDKLKIMQEMKNSQQEHRNMENKTLEMELKLKGLEELISTLKDTKGAQKVINWHMKIEELRLQELKLNRELVKDKEEIKYLNNIISEYERTISSLEEEIVQQNKFHEERQMAWDQREVDLERQLDIFDRQQNEILNAAQKFEEATGSIPDPSLPLPNQLEIALRKIKENIRIILETRATCKSLEEKLKEKESALRLAEQNILSRDKVINELRLRLPATAEREKLIAELGRKEMEPKSHHTLKIAHQTIANMQARLNQKEEVLKKYQRLLEKAREEQREIVKKHEEDLHILHHRLELQADSSLNKFKQTAWDLMKQSPTPVPTNKHFIRLAEMEQTVAEQDDSLSSLLVKLKKVSQDLERQREITELKVKEFENIKLQLQENHEDEVKKVKAEVEDLKYLLDQSQKESQCLKSELQAQKEANSRAPTTTMRNLVERLKSQLALKEKQQKALSRALLELRAEMTAAAEERIISATSQKEAHLNVQQIVDRHTRELKTQVEDLNENLLKLKEALKTSKNRENSLTDNLNDLNNELQKKQKAYNKILREKEEIDQENDELKRQIKRLTSGLQGKPLTDNKQSLIEELQRKVKKLENQLEGKVEEVDLKPMKEKNAKEELIRWEEGKKWQAKIEGIRNKLKEKEGEVFTLTKQLNTLKDLFAKADKEKLTLQRKLKT
# notes: The text says only 'lacking both termini'; also called truncation lacking both termini; construct lacking both the N- and C-termini; not shown: N-terminal GFP tag from pcDNA-DEST53 (Gateway)
# B4: GFP fusion of CEP290 aa 1-1966 (other)
# chain: MPPNINWKEIMKVDPDDLPRQEELADNLLISLSKVEVNELKSEKQENVIHLFRITQSLMKMKAQEVELALEEVEKAGEEQAKFENQLKTKVMKLENELEMAQQSAGGRDTRFLRNEICQLEKQLEQKDRELEDMEKELEKEKKVNEQLALRNEEAENENSKLRRENKRLKKKNEQLCQDIIDYQKQIDSQKETLLSRRGEDSDYRSQLSKKNYELIQYLDEIQTLTEANEKIEVQNQEMRKNLEESVQEMEKMTDEYNRMKAIVHQTDNVIDQLKKENDHYQLQVQELTDLLKSKNEEDDPIMVAVNAKVEEWKLILSSKDDEIIEYQQMLHNLREKLKNAQLDADKSNVMALQQGIQERDSQIKMLTEQVEQYTKEMEKNTCIIEDLKNELQRNKGASTLSQQTHMKIQSTLDILKEKTKEAERTAELAEADAREKDKELVEALKRLKDYESGVYGLEDAVVEIKNCKNQIKIRDREIEILTKEINKLELKISDFLDENEALRERVGLEPKTMIDLTEFRNSKHLKQQQYRAENQILLKEIESLEEERLDLKKKIRQMAQERGKRSATSGLTTEDLNLTENISQGDRISERKLDLLSLKNMSEAQSKNEFLSRELIEKERDLERSRTVIAKFQNKLKELVEENKQLEEGMKEILQAIKEMQKDPDVKGGETSLIIPSLERLVNAIESKNAEGIFDASLHLKAQVDQLTGRNEELRQELRESRKEAINYSQQLAKANLKIDHLEKETSLLRQSEGSNVVFKGIDLPDGIAPSSASIINSQNEYLIHLLQELENKEKKLKNLEDSLEDYNRKFAVIRHQQSLLYKEYLSEKETWKTESKTIKEEKRKLEDQVQQDAIKVKEYNNLLNALQMDSDEMKKILAENSRKITVLQVNEKSLIRQYTTLVELERQLRKENEKQKNELLSMEAEVCEKIGCLQRFKEMAIFKIAALQKVVDNSVSLSELELANKQYNELTAKYRDILQKDNMLVQRTSNLEHLECENISLKEQVESINKELEITKEKLHTIEQAWEQETKLGNESSMDKAKKSITNSDIVSISKKITMLEMKELNERQRAEHCQKMYEHLRTSLKQMEERNFELETKFAELTKINLDAQKVEQMLRDELADSVSKAVSDADRQRILELEKNEMELKVEVSKLREISDIARRQVEILNAQQQSRDKEVESLRMQLLDYQAQSDEKSLIAKLHQHNVSLQLSEATALGKLESITSKLQKMEAYNLRLEQKLDEKEQALYYARLEGRNRAKHLRQTIQSLRRQFSGALPLAQQEKFSKTMIQLQNDKLKIMQEMKNSQQEHRNMENKTLEMELKLKGLEELISTLKDTKGAQKVINWHMKIEELRLQELKLNRELVKDKEEIKYLNNIISEYERTISSLEEEIVQQNKFHEERQMAWDQREVDLERQLDIFDRQQNEILNAAQKFEEATGSIPDPSLPLPNQLEIALRKIKENIRIILETRATCKSLEEKLKEKESALRLAEQNILSRDKVINELRLRLPATAEREKLIAELGRKEMEPKSHHTLKIAHQTIANMQARLNQKEEVLKKYQRLLEKAREEQREIVKKHEEDLHILHHRLELQADSSLNKFKQTAWDLMKQSPTPVPTNKHFIRLAEMEQTVAEQDDSLSSLLVKLKKVSQDLERQREITELKVKEFENIKLQLQENHEDEVKKVKAEVEDLKYLLDQSQKESQCLKSELQAQKEANSRAPTTTMRNLVERLKSQLALKEKQQKALSRALLELRAEMTAAAEERIISATSQKEAHLNVQQIVDRHTRELKTQVEDLNENLLKLKEALKTSKNRENSLTDNLNDLNNELQKKQKAYNKILREKEEIDQENDELKRQIKRLTSGLQGKPLTDNKQSLIEELQRKVKKLENQLEGKVEEVDLKPMKEKNAKEELIRWEEGKKWQAKIEGIRNKLKEKEGEVFTLTKQLNTLKDLFAKADKEKLTLQRKLKT
# notes: The text says only 'lacking the C-terminus'; also called truncation lacking the C-terminus; not shown: N-terminal GFP tag from pcDNA-DEST53 (Gateway)
# Target: microtubule network of cultured human cells (hTERT-RPE1, 293T) (human, UniProt P68363 1-451; P07437 1-444)
# Sequence (P68363 whole entry, chain 1 of 2): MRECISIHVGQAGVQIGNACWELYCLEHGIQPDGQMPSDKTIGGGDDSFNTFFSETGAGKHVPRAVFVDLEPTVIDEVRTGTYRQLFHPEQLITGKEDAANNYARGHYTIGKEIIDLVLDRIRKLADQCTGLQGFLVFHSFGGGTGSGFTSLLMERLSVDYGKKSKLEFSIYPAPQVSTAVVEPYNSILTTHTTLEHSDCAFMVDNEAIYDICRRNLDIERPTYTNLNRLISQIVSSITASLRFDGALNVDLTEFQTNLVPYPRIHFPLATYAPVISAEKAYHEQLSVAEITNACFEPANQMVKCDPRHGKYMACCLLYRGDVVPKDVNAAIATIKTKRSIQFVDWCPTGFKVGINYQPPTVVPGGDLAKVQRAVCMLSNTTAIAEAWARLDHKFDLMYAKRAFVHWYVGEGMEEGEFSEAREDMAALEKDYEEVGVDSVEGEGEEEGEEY
# Sequence (P07437 whole entry, chain 2 of 2): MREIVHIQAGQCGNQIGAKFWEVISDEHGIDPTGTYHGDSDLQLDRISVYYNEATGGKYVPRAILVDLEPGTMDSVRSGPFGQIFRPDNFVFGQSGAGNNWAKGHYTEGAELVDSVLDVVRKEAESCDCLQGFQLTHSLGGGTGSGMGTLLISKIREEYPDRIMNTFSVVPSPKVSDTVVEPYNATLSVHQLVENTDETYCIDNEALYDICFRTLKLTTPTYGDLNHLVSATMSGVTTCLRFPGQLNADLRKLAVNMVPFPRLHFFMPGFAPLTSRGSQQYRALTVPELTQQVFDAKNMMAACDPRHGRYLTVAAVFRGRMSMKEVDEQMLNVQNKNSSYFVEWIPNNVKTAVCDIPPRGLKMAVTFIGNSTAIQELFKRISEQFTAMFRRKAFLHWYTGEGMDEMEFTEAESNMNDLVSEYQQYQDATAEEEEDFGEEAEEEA
# Assay: cell-based or functional assay
Binder,percent of transfected cells with increased microtubule acetylation and bundling [%],percent of transfected hTERT-RPE1 cells with a fibrillar localization pattern [%]
B1,~75,
B2,~40,~20
B3,~75,~80
B4,~40,~60

# Target: T1, pure, pre-polymerized, taxol-stabilized microtubules of bovine tubulin (Cytoskeleton) (bovine, UniProt P81947 1-451; Q6B856 1-445, limits assumed)
# T1 construct: Polymer of alpha/beta tubulin dimers, polymerized with GTP and stabilized with 10 µM taxol; also called MT; MTs
# T1 sequence (P81947 whole entry, chain 1 of 2): as the sequence (P68363 whole entry, chain 1 of 2) above
# T1 sequence (Q6B856 whole entry, chain 2 of 2): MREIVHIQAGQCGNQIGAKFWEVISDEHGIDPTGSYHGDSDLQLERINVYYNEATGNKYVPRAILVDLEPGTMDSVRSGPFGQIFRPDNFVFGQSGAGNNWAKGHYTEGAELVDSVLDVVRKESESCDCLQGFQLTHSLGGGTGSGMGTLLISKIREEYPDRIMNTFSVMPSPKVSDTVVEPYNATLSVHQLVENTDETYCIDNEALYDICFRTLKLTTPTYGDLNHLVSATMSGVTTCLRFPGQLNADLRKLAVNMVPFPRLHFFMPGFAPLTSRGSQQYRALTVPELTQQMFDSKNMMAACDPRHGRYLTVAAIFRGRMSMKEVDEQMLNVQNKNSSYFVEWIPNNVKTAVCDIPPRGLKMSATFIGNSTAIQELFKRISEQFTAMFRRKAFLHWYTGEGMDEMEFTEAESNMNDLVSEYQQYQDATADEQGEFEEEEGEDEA
# Assay: in vitro microtubule co-sedimentation, percent of construct in the microtubule pellet (FIG. 4D)
# Description: Crude TNT T7 reaction products were diluted 1:1 in BRB80 supplemented with 1 mM GTP and 10 μM taxol. The diluted products were then incubated at 30° C. for 30 minutes in either the presence or absence of pure, pre-polymerized microtubules. Reactions were then centrifuged through a 40% sucrose cushion at 48,000×g for 30 minutes, the supernatant was collected, and the pellet washed once with warm BRB80 and resuspended in 1×SDS PAGE sample buffer. Both fractions were subjected to SDS-PAGE and transferred to nitrocellulose. The presence of tubulin in the pellets was confirmed by Ponceau staining, and GFP-tagged CEP290 constructs were detected by immunoblotting.
row,Binder,percent associated with microtubules [%]
1,B1,~100
2,B2,< 50
3,B3,~100
4,B4,< 50
